The target of data set [1] is T1, CCR2 rationally-designed meganuclease (I-CreI derivative).
T1 chain: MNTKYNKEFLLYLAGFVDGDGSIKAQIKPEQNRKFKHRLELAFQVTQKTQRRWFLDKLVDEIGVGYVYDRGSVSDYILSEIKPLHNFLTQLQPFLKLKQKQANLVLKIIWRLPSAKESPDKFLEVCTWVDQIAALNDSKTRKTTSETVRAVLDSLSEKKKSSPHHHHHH

Data set [2] deals with T2, MYD2 rationally-designed meganuclease (I-CreI derivative).
T2 chain: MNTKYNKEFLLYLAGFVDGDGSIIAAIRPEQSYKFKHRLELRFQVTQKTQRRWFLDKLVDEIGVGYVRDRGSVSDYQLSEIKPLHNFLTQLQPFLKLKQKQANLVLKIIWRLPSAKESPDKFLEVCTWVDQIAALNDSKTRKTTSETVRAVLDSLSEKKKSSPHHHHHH

Data set [3] has as its target T3, HSV2 rationally-designed meganuclease (I-CreI derivative).
T3 chain: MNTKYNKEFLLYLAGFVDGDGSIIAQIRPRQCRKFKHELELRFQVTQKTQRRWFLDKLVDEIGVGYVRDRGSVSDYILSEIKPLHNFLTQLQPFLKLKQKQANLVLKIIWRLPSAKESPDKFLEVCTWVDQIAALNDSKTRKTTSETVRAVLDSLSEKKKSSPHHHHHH

B1: CCR1 rationally-designed meganuclease (I-CreI derivative) (protein)
chain: MNTKYNKEFLLYLAGFVDGDGSIKAQIRPRQNYKFKHELELEFQVTQKTQRRWFLDKLVDEIGVGYVYDRGSVSDYILSEIKPLHNFLTQLQPFLKLKQKQANLVLKIIWRLPSAKESPDKFLEVCTWVDQIAALNDSKTRKTTSETVRAVLDSLSEKKKSSPHHHHHH
Take B1: in data set [1], the “cleavage of a linearized DNA substrate containing the intended non-palindromic recognition sequence by the 1:1 mixture” value is recorded as “each rationally-designed meganuclease heterodimer cleaves its intended DNA site”.

B2: MYD1 rationally-designed meganuclease (I-CreI derivative) (protein)
chain: MNTKYNKEFLLYLAGFVDGDGSIIAQIRPRQSYKFKHELELAFQVTQKTQRRWFLDKLVDEIGVGKVRDRGSVSDYELSEIKPLHNFLTQLQPFLKLKQKQANLVLKIIWRLPSAKESPDKFLEVCTWVDQIAALNDSKTRKTTSETVRAVLDSLSEKKKSSPHHHHHH
Consider B2, for which, in data set [2], the “cleavage of a linearized DNA substrate containing the intended non-palindromic recognition sequence by the 1:1 mixture” value is listed as “each rationally-designed meganuclease heterodimer cleaves its intended DNA site”.

B3: HSV1 rationally-designed meganuclease (I-CreI derivative) (protein)
chain: MNTKYNKEFLLYLAGFVDGDGSIIAQIKPRQSCKFKHELRLQFQVTQKTQRRWFLDKLVDEIGVGYVRDRGSVSDYILSEIKPLHNFLTQLQPFLKLKQKQANLVLKIIWRLPSAKESPDKFLEVCTWVDQIAALNDSKTRKTTSETVRAVLDSLSEKKKSSPHHHHHH
As to B3, the “cleavage of a linearized DNA substrate containing the intended non-palindromic recognition sequence by the 1:1 mixture” value in data set [3] was “each rationally-designed meganuclease heterodimer cleaves its intended DNA site”.

Values taken from US20150315556.
